Consider three molecules from patent US20240075068A1 (GADETA B V, published 2024).

Where only a bound is given, the exact number is not on record here.

Assay [1] concerns the target T1, endothelial protein C receptor (EPCR) on HT-29 cells (UniProt Q9UNN8 18-238, limits assumed).
T1 construct: whole, on cells; The description says 'preferably human EPCR'; HT-29 is a human cell line; also called recognised target; target antigen
T1 sequence (looked up): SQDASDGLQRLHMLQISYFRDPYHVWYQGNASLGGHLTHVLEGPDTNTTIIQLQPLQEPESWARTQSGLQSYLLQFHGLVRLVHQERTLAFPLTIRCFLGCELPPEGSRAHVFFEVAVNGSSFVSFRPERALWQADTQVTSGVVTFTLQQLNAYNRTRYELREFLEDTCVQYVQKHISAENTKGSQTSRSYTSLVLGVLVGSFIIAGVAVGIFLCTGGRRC
Put plainly: flow cytometry on HT-29 cells (wild-type, EPCR-enhanced, EPCR KO), streptavidin-A647 detection. Background: In flow cytometry, cells or beads pass a laser one at a time.
Protocol: Target cells mock treated with PBS served as control binding (FIG. 15A). […] Mock treated and unstained target cells served as controls. Data was analysed with flowjo and shown as histograms.
(§1) Trypsinized HT-29 target cells seeded in 96-well round bottom-plates were incubated for 2 hours at 37° C. to recover cell surface expression molecules. […] Unbound sTCR/TCR-CD3 bispecific engager was washed. Bound sTCR or TCR-CD3 bispecific engager was stained respectively with streptavidin-labelled A647 (BioLegend, CA, USA) or anti-His-APC (BioLegend). Staining was determined with FACS flow cytometry was results were analyzed with Flowjo software.
The soluble γδTCRs were used to assess specific binding to HT-29 cells, HT-29 knocked out (KO) for the expressed target (EPCR) or HT-29 cells with ectopic target expression. Bound soluble γδTCRs were targeted with a secondary streptavidin A647-labelled antibody that could be detected with FACS flow cytometry.

The target of assay [2] is T1, endothelial protein C receptor (EPCR) …. The experiment in a line: flow cytometry on HT-29 cells (wild-type, EPCR ectopic, EPCR KO), anti-His-APC detection.
Protocol: PBS-mock treated (secondary only) or unstained target cells served as controls. Data was analysed with flowjo and shown as histograms.
as §1
The γδTCR-CD3 bispecific engagers were used in binding experiments utilizing HT-29 cells, HT-29 with the target antigen (EPCR) knocked out (KO) or with ectopic expression of the target. Bound γδTCR-CD3 bispecific engagers were targeted with an anti-His-APC-labelled secondary antibody that could be detected with FACS flow cytometry.
Assay [3] addresses Endothelial protein C receptor (EPCR) peptide on (human). Put plainly: TEG library γ-random/δ-random, 16 h with Luc-Tom HT-29 (cells that express the antigen), E:T 1:3; CD69/CD107a sort, NGS read ratio; Fig. 9; full-length, on cells. To be noted: chains Vgamma:Vdelta.

B1: sE57 G2/D1 soluble γδTCR (affinity decreased variant, without cysteine) (TCR, V domains shown)
V domain 1: SSNLEGRTKSVIRQTGSSAEITCDLAEGSTGYIHWYLHQEGKAPQRLLYYDSYTSSVVLESGISPGKYDTYGSTRKNLRMILRNLIENDSGVYYCATWDGYKKLFGSGTTLVVTD
V domain 2: DQQVKQNSPSLSVQEGRISILNCDYTNSMFDYFLWYKKYPAEGPTFLISISSIKDKNEDGRFTVFLNKSAKHLSLHIVPSQPGDSAVYFCAASSPIRGYTSGSDKLIFGKGTRVTVEP
modifications: biotinylated via Avi-tag (BirA co-transfection in the presence of biotin)
notes: also called G2/D1 variant
B1: in assay [1], the binding result is “no binding (tested: 10 µg)”.

B2: soluble γδTCR-CD3 bispecific engager comprising the G2/D1 variant regions (TCR, V domains shown)
V domain 1: B1 V domain 1
V domain 2: B1 V domain 2
notes: This is a TCR-scFv fusion; also called G2/D1 γδTCR-CD3 bispecific engager; G2D1 γδTCR-CD3 bispecific engager
Take B2: the binding result in assay [2] was “no binding (tested: 5 µg)”.

B3: E57 G7/D5 (protein)
chain 1: SSNLEGRTKSVIRQTGSSAEITCDLAEGSTGYIHWYLHQEGKAPQRLLYYDSYTSSVVLESGISPGKYDTYGSTRKNLRMILRNLIENDSGVYYCATWEAFYYKKLFGSGTTLVVT
chain 2: DQQVKQNSPSLSVQEGRISILNCDYTNSMFDYFLWYKKYPAEGPTFLISISSIKDKNEDGRFTVFLNKSAKHLSLHIVPSQPGDSAVYFCAASSPIKGYTGSDKLIFGKGTRVTVEP
For the molecule B3, the enrichment of CD69+/CD107a+ over CD69-/CD107a- reads in assay [3] is > 170%.
